These results are taken from publication PMC7979752.

In experiment [1] the target is SmhC (S. marcescens MSU-97).
For experiment [2], the target named is SmhB (S. marcescens MSU-97). The experiment in a line: crystal structure; SmhB pore form, crystallised in 0.2 M calcium chloride, 40% MPD, 16 °C; space group C2, 6.98 Å.

For SmhB (natural protein), the percentage lysis of horse erythrocytes with equimolar SmhB and SmhC, 2 h in experiment [1] came out at 5%. Besides, the stoichiometry N – broadly, the number of molecules, sites or subunits per partner or assembly – in experiment [2] worked out at 10.
